# According to publication doi:10.1101/2020.12.02.404004:
# Target: VcSiaP R125A Q54R1 L173R1 with N-terminal HisTEV tag (Vibrio cholerae) (UniProt Q9KR64)
# Experiment: crystal structure
substance,measurement,value
VcSiaP R125A Q54R1 L173R1 with N-terminal HisTEV tag (from UniProt Q9KR64 23-321) (natural protein),stoichiometry N,2
